# B1: recombinant rod domain of vimentin (rhRod) (domain or fragment)
# chain: not shown
# modifications: IRDye 800CW NHS ester label (as the probe of the peptide array only)
# notes: also called rhRod-1 to rhRod-7 (lots)
# Target: T1, recombinant spike S1S2 extracellular domain of SARS-CoV-2 (S1S2ECD-His) (SARS-CoV-2, UniProt P0DTC2 14-1213, IRDye 800CW NHS ester label (as the probe of the peptide array only))
# T1 construct: also called SARS-CoV-2 spike protein; S1S2 protein
# Assay: BLI; S1S2ECD-His amine-coupled on AR2G sensors (10 µg/mL in 10 mM sodium acetate pH 4); rhRod in solution, 8 concentrations a run; Octet Red384; KD by non-linear regression of the steady-state response
# Details: both partners purified
binder,measurement,value
B1,Kd,163 nM
